± gives the standard deviation of the averaged measurements.
B1: library; a variant is named by its letters at N, in order (parent)
chain: GCUGUCACCGGAAUACCAGCAUCGUCUUGAUGCCCUUGGAAGUCCGGUCUGAUGAGUCCNNNNNGGACGAAACAGC

Assays:
theophylline [1] = variants of: B1; assay: FACS-Seq fitted mean relative fluorescence mCherry/BFP without ligand (log10 relative fluorescence); higher = higher reporter protein expression; settings: HEK293T, ligand present: no
Outline: (§1)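 Fluorescence comes from a normal fit to bin counts, normalized against controls. HEK293T libraries lentivirally given a ribozyme-switch mCherry reporter and an EF1α-BFP marker were enriched, incubated 48 h with or without ligand, and sorted by mCherry/BFP into 6 bins. Bin genomic DNA was PCR-amplified, barcoded and sequenced on MiSeq. The log10(mCherry/BFP) mean was scaled to five spiked-in control ribozymes.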

theophylline [2] = variants of: B1; assay: normalized RNA/DNA level with ligand (relative to sTRSVctl = 100) (log10 (% of sTRSVctl)); higher = less ribozyme self-cleavage, higher mRNA level; settings: ligand concentration (+) RNA-Seq: 5 mM, HEK293T, reporter: mCherry (pCS4076), ligand present: yes
Outline: (§2)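 RNA level was computed as RNA reads over DNA reads divided by a spiked-in non-cleaving sequence or by the top sequences, then scaled and log-transformed. Scaling was ×100 with log10, the top group was 25 sequences, and the threshold was ≥100 DNA reads. The reads came from HEK293T cells transfected at 4 µg per 6-well well with ribozyme switch library plasmids (mCherry, or eGFP in some ligand experiments). Total RNA was extracted with EDTA 72 h after transfection, with any ligand added 1 h before it.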

theophylline [3] = variants of: B1; assay: normalized RNA/DNA level without ligand (relative to sTRSVctl = 100) (log10 (% of sTRSVctl)); higher = less ribozyme self-cleavage, higher mRNA level; settings: HEK293T, reporter: mCherry (pCS4076), ligand present: no
Outline: as §2

theophylline [4] = variants of: B1; assay: FACS-Seq fitted mean relative fluorescence mCherry/BFP with ligand (log10 relative fluorescence); ligand concentration (+) FACS-Seq: 1 mM; higher = higher reporter protein expression; settings: HEK293T, ligand present: yes
Outline: as §1

| Variant | FACS-Seq fitted mean (log10) (theophylline [1]) | normalized RNA/DNA level with ligand (log10) (theophylline [2]) | normalized RNA/DNA level without ligand (log10) (theophylline [3]) | FACS-Seq fitted mean (log10) (theophylline [4]) |
| --- | --- | --- | --- | --- |
| AUGAC | 0.5991 ± 0.0031 | 1.914 ± 0.016 | 1.87 ± 0.16 | 0.786 ± 0.021 |
| AUGAA | 0.317 ± 0.045 | 1.94 ± 0.04 | 1.52 ± 0.074 | 0.5036 ± 0.0038 |
| AUGAU | 0.439 ± 0.07 | 2.01 ± 0.086 | 1.75 ± 0.12 | 0.262 ± 0.027 |
| CUCAC | 1.14 ± 0.019 | 2.02 ± 0.075 | 2.02 ± 0.13 | 1.12 ± 0.075 |
| CUCAA | 0.816 ± 0.072 | 1.99 ± 0.05 | 1.67 ± 0.022 | 0.914 ± 0.068 |
| CUCAU | 1.03 ± 0.12 | 1.973 ± 0.0058 | 1.85 ± 0.06 | 1.07 ± 0.03 |
| UUGAU | 0.68 ± 0.041 | 2.06 ± 0.1 | 1.82 ± 0.044 | 0.708 ± 0.03 |
| UUGAA | 0.273 ± 0.006 | 1.94 ± 0.08 | 1.29 ± 0.064 | 0.619 ± 0.026 |
| UUGAC | 0.872 ± 0.033 | 2.05 ± 0.042 | 1.93 ± 0.075 | 0.849 ± 0.085 |
| AUCGU | 0.902 ± 0.057 | 2.03 ± 0.13 | 1.93 ± 0.042 | 0.848 ± 0.063 |
| AUCGC | 0.925 ± 0.082 | 1.977 ± 0.017 | 1.92 ± 0.11 | 0.889 ± 0.11 |
| AUCGA | 0.863 ± 0.17 | 2.02 ± 0.087 | 1.76 ± 0.19 | 0.825 ± 0.13 |
| AUCGG | 0.827 ± 0.073 | 1.91 ± 0.11 | 1.87 ± 0.051 | 0.782 ± 0.12 |
| AUCUC | 0.832 ± 0.12 | 2.03 ± 0.032 | 1.97 ± 0.013 | 0.758 ± 0.14 |
| AUCUU | 0.605 ± 0.046 | 2.03 ± 0.055 | 1.93 ± 0.086 | 0.585 ± 0.0056 |
| AUCUA | 0.874 ± 0.15 | 1.99 ± 0.087 | 1.89 ± 0.12 | 0.828 ± 0.069 |
| CGGCC | 0.745 ± 0.024 | 2.06 ± 0.1 | 2.03 ± 0.1 | 0.6421 ± 0.002 |
| CGGCA | 0.507 ± 0.017 | 1.96 ± 0.046 | 1.485 ± 0.0076 | 0.7564 ± 0.0075 |
| UGUGA | 0.563 ± 0.0013 | 2.05 ± 0.037 | 1.54 ± 0.11 | 0.837 ± 0.034 |
| UGUGU | 0.525 ± 0.032 | 1.88 ± 0.044 | 1.87 ± 0.15 | 0.589 ± 0.048 |
| UGUGC | 0.71 ± 0.038 | 2.04 ± 0.047 | 1.93 ± 0.086 | 0.652 ± 0.0049 |
| AUCCA | 0.993 ± 0.031 | 2 ± 0.13 | 1.95 ± 0.1 | 0.788 ± 0.066 |
| AUCCG | 0.573 ± 0.011 | 1.92 ± 0.097 | 1.96 ± 0.014 | 0.591 ± 0.063 |
| UUGGA | 0.406 ± 0.064 | 2.01 ± 0.037 | 1.59 ± 0.14 | 0.494 ± 0.023 |

| Variant | FACS-Seq fitted mean (log10) (theophylline [1]) | normalized RNA/DNA level with ligand (log10) (theophylline [2]) | normalized RNA/DNA level without ligand (log10) (theophylline [3]) | FACS-Seq fitted mean (log10) (theophylline [4]) |
| --- | --- | --- | --- | --- |
| GUAGA | 0.949 ± 0.15 | 1.8 ± 0.057 | 1.66 ± 0.14 | 0.935 ± 0.15 |
| AGUAA | 0.346 ± 0.083 | 1.89 ± 0.12 | 1.35 ± 0.13 | 0.781 ± 0.02 |
| AGUAG | 0.85 ± 0.075 | 1.97 ± 0.1 | 1.71 ± 0.034 | 0.8838 ± 0.0022 |
| AGUAC | 0.729 ± 0.04 | 1.997 ± 0.019 | 1.83 ± 0.068 | 0.749 ± 0.072 |
| AGGGU | 0.635 ± 0.08 | 2.05 ± 0.073 | 1.74 ± 0.05 | 0.897 ± 0.059 |
| AGGGC | 0.731 ± 0.092 | 1.95 ± 0.022 | 1.93 ± 0.094 | 0.756 ± 0.037 |
| AGGGA | 0.303 ± 0.0048 | 2.04 ± 0.079 | 1.48 ± 0.1 | 0.659 ± 0.029 |
| AGGUA | 0.987 ± 0.032 | 1.979 ± 0.0062 | 1.66 ± 0.04 | 1.26 ± 0.14 |
| AGGUC | 0.52 ± 0.032 | 1.95 ± 0.15 | 1.872 ± 0.016 | 0.587 ± 0.049 |
| UGUAC | 0.923 ± 0.082 | 1.98 ± 0.024 | 1.95 ± 0.045 | 0.851 ± 0.13 |
| CUACU | 0.761 ± 0.11 | 1.96 ± 0.087 | 1.8 ± 0.019 | 0.924 ± 0.034 |
| CUACA | 0.702 ± 0.027 | 2.031 ± 0.0063 | 1.84 ± 0.021 | 0.826 ± 0.11 |
| CUACC | 0.996 ± 0.11 | 1.968 ± 0.015 | 1.96 ± 0.11 | 1.02 ± 0.03 |
| GUCCU | 1.16 ± 0.13 | 2.03 ± 0.052 | 2 ± 0.1 | 1.13 ± 0.12 |
| UUGCG | 1.18 ± 0.2 | 1.95 ± 0.094 | 1.82 ± 0.08 | 1.12 ± 0.074 |
| UUGCC | 0.794 ± 0.064 | 1.99 ± 0.067 | 1.95 ± 0.021 | 0.78 ± 0.06 |
| UUGCU | 0.987 ± 0.11 | 1.94 ± 0.083 | 1.91 ± 0.03 | 0.922 ± 0.042 |
| AUAAG | 0.547 ± 0.16 | 1.97 ± 0.17 | 1.79 ± 0.082 | 0.578 ± 0.014 |
| AUAAU | 0.702 ± 0.0096 | 2.002 ± 0.012 | 1.79 ± 0.079 | 0.703 ± 0.064 |
| AUAAC | 0.876 ± 0.022 | 2.05 ± 0.13 | 1.96 ± 0.15 | 0.881 ± 0.11 |
| AUAAA | 0.196 ± 0.0089 | 1.99 ± 0.037 | 1.4 ± 0.12 | 0.487 ± 0.033 |
| CGUCC | 0.784 ± 0.02 | 2.01 ± 0.086 | 2 ± 0.044 | 0.87 ± 0.021 |
| UGGCU | 1.01 ± 0.063 | 2.01 ± 0.022 | 1.948 ± 0.011 | 0.992 ± 0.099 |
| UGGUA | 0.0996 ± 0.099 | 1.946 ± 0.011 | 1.28 ± 0.11 | 0.69 ± 0.042 |

| Variant | FACS-Seq fitted mean (log10) (theophylline [1]) | normalized RNA/DNA level with ligand (log10) (theophylline [2]) | normalized RNA/DNA level without ligand (log10) (theophylline [3]) | FACS-Seq fitted mean (log10) (theophylline [4]) |
| --- | --- | --- | --- | --- |
| UGGUG | 0.674 ± 0.065 | 2.04 ± 0.041 | 1.87 ± 0.1 | 0.661 ± 0.083 |
| UGGUU | 0.9379 ± 0.005 | 2.042 ± 0.011 | 1.846 ± 0.0051 | 1.01 ± 0.049 |
| UGGUC | 0.57045 ± 0.00034 | 1.984 ± 0.0062 | 1.95 ± 0.12 | 0.356 ± 0.084 |
| GUCUG | 0.742 ± 0.06 | 1.96 ± 0.074 | 1.87 ± 0.11 | 0.898 ± 0.069 |
| CGUUC | 0.959 ± 0.048 | 1.8643 ± 0.00065 | 1.75 ± 0.07 | 0.949 ± 0.067 |
| CGUUU | 0.252 ± 0.084 | 2.06 ± 0.11 | 1.53 ± 0.077 | 0.945 ± 0.041 |
| GUAAU | 0.914 ± 0.062 | 1.937 ± 0.015 | 1.82 ± 0.085 | 0.966 ± 0.16 |
| GUAAA | 0.745 ± 0.13 | 1.982 ± 0.016 | 1.7 ± 0.045 | 0.936 ± 0.11 |
| CGUAA | 0.083 ± 0.047 | 2.04 ± 0.029 | 1.303 ± 0.0043 | 0.767 ± 0.036 |
| CGUAC | 0.651 ± 0.027 | 1.92 ± 0.093 | 1.75 ± 0.062 | 0.792 ± 0.044 |
| CGUAU | 0.177 ± 0.0091 | 2 ± 0.05 | 1.54 ± 0.11 | 0.491 ± 0.0065 |
| CUCCU | 0.814 ± 0.015 | 2.005 ± 0.011 | 1.88 ± 0.098 | 0.682 ± 0.033 |
| CUCCC | 0.836 ± 0.04 | 2.05 ± 0.12 | 2 ± 0.14 | 0.811 ± 0.012 |
| CUCCA | 1.01 ± 0.29 | 2.03 ± 0.048 | 1.87 ± 0.038 | 0.946 ± 0.15 |
| CUAAC | 1.02 ± 0.018 | 1.94 ± 0.028 | 1.85 ± 0.019 | 0.893 ± 0.18 |
| CUAAA | 0.216 ± 0.045 | 2.02 ± 0.035 | 1.5 ± 0.14 | 0.454 ± 0.068 |
| CUAAU | 0.912 ± 0.092 | 2.02 ± 0.015 | 1.7874 ± 0.001 | 0.979 ± 0.014 |
| GUGAU | -0.224 ± 0.019 | 2 ± 0.12 | 1.66 ± 0.024 | -0.0667 ± 0.046 |
| UUCGU | 0.93 ± 0.0046 | 2.08 ± 0.14 | 2.02 ± 0.059 | 0.939 ± 0.067 |
| UUAAA | 0.111 ± 0.099 | 1.895 ± 0.0096 | 1.26 ± 0.013 | 0.545 ± 0.078 |
| UUAAU | 1.13 ± 0.062 | 1.9977 ± 0.0018 | 1.956 ± 0.013 | 1.07 ± 0.036 |
| UUAAG | 0.769 ± 0.074 | 2.02 ± 0.033 | 1.855 ± 0.012 | 0.829 ± 0.086 |
| UUAAC | 0.885 ± 0.033 | 1.946 ± 0.0047 | 1.93 ± 0.042 | 0.858 ± 0.072 |
| AGUCA | 0.8 ± 0.087 | 1.98 ± 0.14 | 1.73 ± 0.059 | 0.766 ± 0.027 |

From the supplement of paper PMC6757056
